Our source for the ON propagation on this AP combo, against the wt HA4 monobody values is patent US20200216833A1.

The target of the experiment is SH2 domain of Abl1 kinase fused to 434 cI repressor (UniProt P16117). The experiment can be described thus: cell-based or functional assay.

In turn, “HA4 Y84A monobody (from UniProt P0A800 1-91) (designed binder)” registered an ON propagation on this AP combo, against the wt HA4 monobody of 105 fold lower.
